Results taken from patent publication US10941182 (Amgen, dated 2021).
Starred links: 1 amine or outer side, 2 acyl side, 3 side chain; linkers in the order of their positions; H or OH if unused. Non-standard residues stand in square brackets, D forms with d. *: point of attachment. Oic = O=C(O)[C@@H]1C[C@@H]2CCCC[C@@H]2N1; Phe(4-Cl) = N[C@@H](Cc1ccc(Cl)cc1)C(=O)O; γGlu = O=C(O)[C@H](CCC(=O)[*:2])N[*:1]; 2Nal = N[C@@H](Cc1ccc2ccccc2c1)C(=O)O; NMeR = CN[C@@H](CCCNC(=N)N)C(=O)O; Tridecanoyl = CCCCCCCCCCCCC(=O)*; Cha = N[C@@H](CC1CCCCC1)C(=O)O; αMeL = CC(C)C[C@](C)(N)C(=O)O; Tle = CC(C)(C)[C@H](N)C(=O)O; αMeP = C[C@@]1(C(=O)O)CCCN1; β3hP = O=C(O)C[C@@H]1CCCN1; β3hS = N[C@@H](CO)CC(=O)O; Nle = CCCC[C@H](N)C(=O)O; AEEA = NCCOCCOCC(=O)O; Aib = CC(C)(N)C(=O)O; BLeu = β-leucine

T1: rat APJ receptor (rat, UniProt Q9JHG3 1-377)
T1 sequence (looked up): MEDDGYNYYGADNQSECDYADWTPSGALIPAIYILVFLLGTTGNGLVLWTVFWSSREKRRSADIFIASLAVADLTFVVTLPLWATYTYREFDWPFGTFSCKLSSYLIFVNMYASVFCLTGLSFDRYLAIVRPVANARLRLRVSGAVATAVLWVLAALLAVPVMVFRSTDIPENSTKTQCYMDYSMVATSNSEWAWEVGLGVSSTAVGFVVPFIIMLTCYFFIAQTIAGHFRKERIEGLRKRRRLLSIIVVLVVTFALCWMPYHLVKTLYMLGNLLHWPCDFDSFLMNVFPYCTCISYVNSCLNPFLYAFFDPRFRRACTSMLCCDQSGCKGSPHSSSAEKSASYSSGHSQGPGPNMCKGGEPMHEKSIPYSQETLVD

T2: human APJ receptor (human, UniProt P35414 1-380)
T2 sequence (looked up): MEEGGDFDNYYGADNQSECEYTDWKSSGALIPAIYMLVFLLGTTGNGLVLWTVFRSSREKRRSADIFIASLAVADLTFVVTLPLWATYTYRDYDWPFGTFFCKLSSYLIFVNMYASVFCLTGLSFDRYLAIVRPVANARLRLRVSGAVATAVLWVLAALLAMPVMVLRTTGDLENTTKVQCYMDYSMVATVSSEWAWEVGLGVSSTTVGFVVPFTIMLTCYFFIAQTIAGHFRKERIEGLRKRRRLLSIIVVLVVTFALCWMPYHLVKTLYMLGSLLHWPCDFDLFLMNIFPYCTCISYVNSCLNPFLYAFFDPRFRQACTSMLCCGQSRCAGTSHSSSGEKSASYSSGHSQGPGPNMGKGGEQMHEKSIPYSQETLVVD


Tests used:
rat APJ receptor = target: T1, rat APJ receptor; test: cell-based or functional assay
human APJ receptor = target: T2, human APJ receptor; test: cell-based or functional assay

Row | Binder | EC50 Rat APJ Receptor (GTPγS assay) (rat APJ receptor) [pM] | EC50 Human APJ Receptor (GTPγS assay) (human APJ receptor) [pM]
1 | Tridecanoyl-[γGlu][AEEA][AEEA]QRP[NMeR][αMeL]SHKGP[Nle]P[2Nal]-OH (SMILES CCCCCCCCCCCCC(=O)N[C@@H](CCC(=O)NCCOCCOCC(=O)NCCOCCOCC(=O)N[C@@H](CCC(N)=O)C(=O)N[C@@H](CCCNC(=N)N)C(=O)N1CCC[C@H]1C(=O)N(C)[C@@H](CCCNC(=N)N)C(=O)N[C@@](C)(CC(C)C)C(=O)N[C@@H](CO)C(=O)N[C@@H](Cc1c[nH]cn1)C(=O)N[C@@H](CCCCN)C(=O)NCC(=O)N1CCC[C@H]1C(=O)N[C@@H](CCCC)C(=O)N1CCC[C@H]1C(=O)N[C@@H](Cc1ccc2ccccc2c1)C(=O)O)C(=O)O) [Apelin polypeptide SEQ ID NO: 472] | 92 | 20.4
2 | Tridecanoyl-[γGlu][AEEA][AEEA][dQ]RP[NMeR][αMeL]SHKG[Oic][Nle]P[Phe(4-Cl)]-OH (SMILES CCCCCCCCCCCCC(=O)N[C@@H](CCC(=O)NCCOCCOCC(=O)NCCOCCOCC(=O)N[C@H](CCC(N)=O)C(=O)N[C@@H](CCCNC(=N)N)C(=O)N1CCC[C@H]1C(=O)N(C)[C@@H](CCCNC(=N)N)C(=O)N[C@@](C)(CC(C)C)C(=O)N[C@@H](CO)C(=O)N[C@@H](Cc1c[nH]cn1)C(=O)N[C@@H](CCCCN)C(=O)NCC(=O)N1[C@H](C(=O)N[C@@H](CCCC)C(=O)N2CCC[C@H]2C(=O)N[C@@H](Cc2ccc(Cl)cc2)C(=O)O)C[C@@H]2CCCC[C@@H]21)C(=O)O) [Apelin polypeptide SEQ ID NO: 386] | 261 | 93.4
3 | Tridecanoyl-[γGlu][AEEA][AEEA]QRP[NMeR][αMeL]SHKG[Oic][Nle][αMeP][Phe(4-Cl)]-OH (SMILES CCCCCCCCCCCCC(=O)N[C@@H](CCC(=O)NCCOCCOCC(=O)NCCOCCOCC(=O)N[C@@H](CCC(N)=O)C(=O)N[C@@H](CCCNC(=N)N)C(=O)N1CCC[C@H]1C(=O)N(C)[C@@H](CCCNC(=N)N)C(=O)N[C@@](C)(CC(C)C)C(=O)N[C@@H](CO)C(=O)N[C@@H](Cc1c[nH]cn1)C(=O)N[C@@H](CCCCN)C(=O)NCC(=O)N1[C@H](C(=O)N[C@@H](CCCC)C(=O)N2CCC[C@@]2(C)C(=O)N[C@@H](Cc2ccc(Cl)cc2)C(=O)O)C[C@@H]2CCCC[C@@H]21)C(=O)O) [Apelin polypeptide SEQ ID NO: 376] | 414 | 238
4 | Tridecanoyl-[γGlu][AEEA][AEEA]QRP[NMeR][αMeL]SHKG[Oic][Nle][Phe(4-Cl)]-OH (SMILES CCCCCCCCCCCCC(=O)N[C@@H](CCC(=O)NCCOCCOCC(=O)NCCOCCOCC(=O)N[C@@H](CCC(N)=O)C(=O)N[C@@H](CCCNC(=N)N)C(=O)N1CCC[C@H]1C(=O)N(C)[C@@H](CCCNC(=N)N)C(=O)N[C@@](C)(CC(C)C)C(=O)N[C@@H](CO)C(=O)N[C@@H](Cc1c[nH]cn1)C(=O)N[C@@H](CCCCN)C(=O)NCC(=O)N1[C@H](C(=O)N[C@@H](CCCC)C(=O)N[C@@H](Cc2ccc(Cl)cc2)C(=O)O)C[C@@H]2CCCC[C@@H]21)C(=O)O) [Apelin polypeptide SEQ ID NO: 389] | 365 | 196
5 | Tridecanoyl-[γGlu][AEEA][AEEA][dQ]RP[NMeR][αMeL]SHKG[Oic][Nle][β3hP][Phe(4-Cl)]-OH (SMILES CCCCCCCCCCCCC(=O)N[C@@H](CCC(=O)NCCOCCOCC(=O)NCCOCCOCC(=O)N[C@H](CCC(N)=O)C(=O)N[C@@H](CCCNC(=N)N)C(=O)N1CCC[C@H]1C(=O)N(C)[C@@H](CCCNC(=N)N)C(=O)N[C@@](C)(CC(C)C)C(=O)N[C@@H](CO)C(=O)N[C@@H](Cc1c[nH]cn1)C(=O)N[C@@H](CCCCN)C(=O)NCC(=O)N1[C@H](C(=O)N[C@@H](CCCC)C(=O)N2CCC[C@H]2CC(=O)N[C@@H](Cc2ccc(Cl)cc2)C(=O)O)C[C@@H]2CCCC[C@@H]21)C(=O)O) [Apelin polypeptide SEQ ID NO: 554] | 2830 | 867
6 | Tridecanoyl-[γGlu][AEEA][AEEA]QRP[NMeR][BLeu]SHKG[Oic][Nle]P[Phe(4-Cl)]-OH [Apelin polypeptide SEQ ID NO: 391] | 1500 | 565
7 | XXXQRPRLSHKGPXPF ({TDA}[AC4Abu][Aeea][Aeea]QRP[NMeArg][BhLeu]SHKGP[Nle]P[4-Cl-F]{COOH}) [Apelin polypeptide SEQ ID NO: 422] | 196 | 169
8 | Tridecanoyl-[γGlu][AEEA][AEEA][dQ]RP[NMeR][Cha][β3hS]HKG[Oic][Nle][Aib][Phe(4-Cl)]-OH (SMILES CCCCCCCCCCCCC(=O)N[C@@H](CCC(=O)NCCOCCOCC(=O)NCCOCCOCC(=O)N[C@H](CCC(N)=O)C(=O)N[C@@H](CCCNC(=N)N)C(=O)N1CCC[C@H]1C(=O)N(C)[C@@H](CCCNC(=N)N)C(=O)N[C@@H](CC1CCCCC1)C(=O)N[C@@H](CO)CC(=O)N[C@@H](Cc1c[nH]cn1)C(=O)N[C@@H](CCCCN)C(=O)NCC(=O)N1[C@H](C(=O)N[C@@H](CCCC)C(=O)NC(C)(C)C(=O)N[C@@H](Cc2ccc(Cl)cc2)C(=O)O)C[C@@H]2CCCC[C@@H]21)C(=O)O) [Apelin polypeptide SEQ ID NO: 500] | 3140 | 588
9 | Tridecanoyl-[γGlu][AEEA][AEEA]QRP[NMeR][Cha]SH[AMeK]G[Oic][Nle]P[Phe(4-Cl)]-OH [Apelin polypeptide SEQ ID NO: 444] | 10100 | 5600
10 | Tridecanoyl-[γGlu][AEEA][AEEA]QRP[NMeR][αMeL]SHKG[Oic][Nle]P[Phe(4-Cl)]-OH (SMILES CCCCCCCCCCCCC(=O)N[C@@H](CCC(=O)NCCOCCOCC(=O)NCCOCCOCC(=O)N[C@@H](CCC(N)=O)C(=O)N[C@@H](CCCNC(=N)N)C(=O)N1CCC[C@H]1C(=O)N(C)[C@@H](CCCNC(=N)N)C(=O)N[C@@](C)(CC(C)C)C(=O)N[C@@H](CO)C(=O)N[C@@H](Cc1c[nH]cn1)C(=O)N[C@@H](CCCCN)C(=O)NCC(=O)N1[C@H](C(=O)N[C@@H](CCCC)C(=O)N2CCC[C@H]2C(=O)N[C@@H](Cc2ccc(Cl)cc2)C(=O)O)C[C@@H]2CCCC[C@@H]21)C(=O)O) [Apelin polypeptide SEQ ID NO: 385] | 170 | 68.8
11 | XXXQRPRLSHKGXXPF ({TDA}[AC4Abu][Aeea][Aeea]qRP[NMeArg][aMeLeu]SHKG[Pip][Nle][aMePro][4-Cl-F]{COOH}) [Apelin polypeptide SEQ ID NO: 555] | 422 | 102
12 | Tridecanoyl-[γGlu][AEEA][AEEA][dQ]RP[NMeR][Cha]SAKG[Oic][Nle][Aib][Phe(4-Cl)]-OH (SMILES CCCCCCCCCCCCC(=O)N[C@@H](CCC(=O)NCCOCCOCC(=O)NCCOCCOCC(=O)N[C@H](CCC(N)=O)C(=O)N[C@@H](CCCNC(=N)N)C(=O)N1CCC[C@H]1C(=O)N(C)[C@@H](CCCNC(=N)N)C(=O)N[C@@H](CC1CCCCC1)C(=O)N[C@@H](CO)C(=O)N[C@@H](C)C(=O)N[C@@H](CCCCN)C(=O)NCC(=O)N1[C@H](C(=O)N[C@@H](CCCC)C(=O)NC(C)(C)C(=O)N[C@@H](Cc2ccc(Cl)cc2)C(=O)O)C[C@@H]2CCCC[C@@H]21)C(=O)O) [Apelin polypeptide SEQ ID NO: 530] | 974 | 380
13 | Tridecanoyl-[γGlu][AEEA][AEEA]QRP[NMeR][Cha]S[Tle]KG[Oic][Nle]P[Phe(4-Cl)]-OH (SMILES CCCCCCCCCCCCC(=O)N[C@@H](CCC(=O)NCCOCCOCC(=O)NCCOCCOCC(=O)N[C@@H](CCC(N)=O)C(=O)N[C@@H](CCCNC(=N)N)C(=O)N1CCC[C@H]1C(=O)N(C)[C@@H](CCCNC(=N)N)C(=O)N[C@@H](CC1CCCCC1)C(=O)N[C@@H](CO)C(=O)N[C@H](C(=O)N[C@@H](CCCCN)C(=O)NCC(=O)N1[C@H](C(=O)N[C@@H](CCCC)C(=O)N2CCC[C@H]2C(=O)N[C@@H](Cc2ccc(Cl)cc2)C(=O)O)C[C@@H]2CCCC[C@@H]21)C(C)(C)C)C(=O)O) [Apelin polypeptide SEQ ID NO: 438] | 1280 | 1490
14 | XXXQRPRLSHKGXXPF ({TDA}[AC4Abu][Aeea][Aeea]QRP[NMeArg][aMeLeu]SHKG[Pip][Nle][aMePro][4-Cl-F]{COOH}) [Apelin polypeptide SEQ ID NO: 605] | 298 | 83.2
